PMC10286367

B1: mouse full-length p65-HA [mouse] / glycogen synthase kinase 3β (Gsk3β) [mouse (endogenous in hippocampal tissue)] (parent)
chain 1: MDDLFPLIFPSEPAQASGPYVEIIEQPKQRGMRFRYKCEGRSAGSIPGERSTDTTKTHPTIKINGYTGPGTVRISLVTKDPPHRPHPHELVGKDCRDGYYEADLCPDRSIHSFQNLGIQCVKKRDLEQAISQRIQTNNNPFHVPIEEQRGDYDLNAVRLCFQVTVRDPAGRPLLLTPVLSHPIFDNRAPNTAELKICRVNRNSGSCLGGDEIFLLCDKVQKEDIEVYFTGPGWEARGSFSQADVHRQVAIVFRTPPYADPSLQAPVRVSMQLRRPSDRELSEPMEFQYLPDTDDRHRIEEKRKRTYETFKSIMKKSPFNGPTEPRPPTRRIAVPTRNSTSVPKPAPQPYTFPASLSTINFDEFSPMLLPSGQISNQALALAPSSAPVLAQTMVPSSAMVPLAQPPAPAPVLTPGPPQSLSAPVPKSTQAGEGTLSEALLHLQFDADEDLGALLGNSTDPGVFTDLASVDNSEFQQLLNQGVSMSHSTAEPMLMEYPEAITRLVTGSQRPPDPAPTPLGTSGLPNGLSGDEDFSSIADMDFSALLSQISS
chain 2: MSGRPRTTSFAESCKPVQQPSAFGSMKVSRDKDGSKVTTVVATPGQGPDRPQEVSYTDTKVIGNGSFGVVYQAKLCDSGELVAIKKVLQDKRFKNRELQIMRKLDHCNIVRLRYFFYSSGEKKDEVYLNLVLDYVPETVYRVARHYSRAKQTLPVIYVKLYMYQLFRSLAYIHSFGICHRDIKPQNLLLDPDTAVLKLCDFGSAKQLVRGEPNVSYICSRYYRAPELIFGATDYTSSIDVWSAGCVLAELLLGQPIFPGDSGVDQLVEIIKVLGTPTREQIREMNPNYTEFKFPQIKAHPWTKVFRPRTPPEAIALCSRLLEYTPTARLTPLEACAHSFFDELRDPNVKLPNGRDTPALFNFTTQELSSNPPLATILIPPHARIQAAASPPANATAASDTNAGDRGQTNNAASASASNST

Assays:
[1] = variants of: B1; experiment: co-IP with Gsk3β followed by WB, band quantification; settings: with glycogen synthase kinase 3β (Gsk3β) [mouse (endogenous in hippocampal tissue)]; p65-HA variant co-expressed with Ogt-Flag and Gsk3β; n = 3 independent experiments; parent: 1; read off a plot
[2] = variants of: B1; experiment: co-IP with HA (p65) followed by WB, band quantification; settings: with glycogen synthase kinase 3β (Gsk3β) [mouse (endogenous in hippocampal tissue)]; p65-HA variant co-expressed with Ogt-Flag and Gsk3β; n = 3 independent experiments; parent: 1; read off a plot

response (relative protein level (HA / Gsk3β)) [1]	response (relative protein level (Gsk3β / HA)) [2]	Variant
1	1.1	chain 1 S396A
1	1.1	chain 1 S370A
2.4	2.1	chain 1 S384A
1.1	1	chain 1 S374A
